{"source": "paper doi:10.1101/2022.11.10.515958", "about": "(bioRxiv, 2022)", "binders": {"B1": {"name": "Cks1-ALFA (natural protein, S. cerevisiae, UniProt P20486 1-150, looked up)", "chain": "MYHHYHAFQGRKLTDQERARVLEFQDSIHYSPRYSDDNYEYRHVMLPKAMLKVIPSDYFNSEVGTLRILTEDEWRGLGITQSLGWEHYECHAPEPHILLFKRPLNYEAELRAATAAAQQQQQQQQQQQQQQQQHQTQSISNDMQVPPQIS"}}, "target": "T1, GST-Whi7 (S. cerevisiae, UniProt P36167 1-246)", "T1 sequence (looked up)": "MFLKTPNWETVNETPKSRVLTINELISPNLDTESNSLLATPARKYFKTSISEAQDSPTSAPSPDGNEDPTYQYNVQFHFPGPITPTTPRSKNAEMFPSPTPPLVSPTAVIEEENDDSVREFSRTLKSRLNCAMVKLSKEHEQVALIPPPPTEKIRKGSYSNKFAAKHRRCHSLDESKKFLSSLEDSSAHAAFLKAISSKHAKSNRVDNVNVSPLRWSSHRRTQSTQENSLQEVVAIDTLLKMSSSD", "assay": "pull-down", "data": [{"binder": "B1", "values": [{"measurement": "binding result", "value": "binds"}]}]}
